Test results reported in article PMC5702849, “A Novel Halotolerant Thermoalkaliphilic Esterase from Marine Bacterium Erythrobacter seohaensis SW-135” (Frontiers in Microbiology, 2017).

Substrate: CCCC(=O)Oc1ccc([N+](=O)[O-])cc1
Assay: purified protein
Format: biochemical, Qipengyuania seohaensis
Details: standard assay: 50 mM CHES pH 10.0, 40 °C, 0.05-4.0 mM substrate

B1: E69 (Qipengyuania seohaensis) (protein)
chain: MRDHGERFVVEAEERRTVSIERTNLGGVNIAWVSPSDKVPSSDGPLIFNLHDGGFALNDGDAALYTAVSFAELQQLDSVSVDYRLTPQHPYPAALEDAVAAYAVIKRKMPGRPIVVYGLSAGGGLGAAFLLKVKQLGLPMPEAAVLNSPWSDVSMNSDTLATLDCYDPLLGGSRPTLKPLANSYAAGADPQDPLVSPVYGDWEGVDVPVLLISGTRDVMLGDTVRLHRAMWRAGVPAELIVNEGMWHAFSVEPEFEAMIADSARFIRHISAKED
notes: expressed in E. coli BL21 (DE3) from pSMT3 as N-terminal His6-SUMO fusion, tag cleaved with ULP1 and removed; about 30 kDa on SDS-PAGE
Which Km does the source give for B1 here?
The Km was 2200 ± 300 µM.
